From the supplement of paper PMC9112550, “Optimization of the antimicrobial peptide Bac7 by deep mutational scanning” (BMC Biology, 2022)

Test system: Escherichia coli TOP10
Experiment: shrunken log2 fold change of peptide-encoding DNA abundance (4.5 h post-induction vs induction); higher = less antimicrobial activity (less host growth inhibition)
Conditions: time post-induction: 4.5 h; library: site-saturation at positions 5, 18, 19, 20
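Further: peptides expressed intracellularly from a pBAD plasmid library in pooled LB shake-flask culture, induced with 0.3% L-arabinose, DNA abundance read by NGS, three biological replicates, DESeq2 with apeglm shrinkage.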

Row | Sequence | shrunken log2 fold change
1 | RRIRYRPPRLPRPRPRPPRWPRP | 0.466
2 | RRIRARPPRLPRPRPRPSGSPRP | 0.216
3 | RRIRFRPPRLPRPRPRPIPPPRP | 1.09
4 | RRIRMRPPRLPRPRPRPGQMPRP | 0.123
5 | RRIRNRPPRLPRPRPRPLCRPRP | -0.372
6 | RRIRERPPRLPRPRPRPPLPPRP | 0.151
7 | RRIRNRPPRLPRPRPRPAFTPRP | -0.176
8 | RRIRIRPPRLPRPRPRPSSSPRP | 0.148
9 | RRIRLRPPRLPRPRPRPKMGPRP | 0.0108
10 | RRIRLRPPRLPRPRPRPAYHPRP | -0.249
11 | RRIRKRPPRLPRPRPRPVHYPRP | -0.0126
12 | RRIRWRPPRLPRPRPRPHQKPRP | 0.0146
13 | RRIRLRPPRLPRPRPRPAIQPRP | 0.987
14 | RRIRTRPPRLPRPRPRPYENPRP | -0.0748
15 | RRIRFRPPRLPRPRPRPPYGPRP | -0.0784
16 | RRIRHRPPRLPRPRPRPTTKPRP | 0.00227
17 | RRIRERPPRLPRPRPRPRLGPRP | 0.157
18 | RRIRCRPPRLPRPRPRPFSIPRP | -0.261
19 | RRIRKRPPRLPRPRPRPFAVPRP | -0.14
20 | RRIRLRPPRLPRPRPRPPPVPRP | 0.98
21 | RRIRKRPPRLPRPRPRPILYPRP | -0.505
22 | RRIRNRPPRLPRPRPRPKEAPRP | -0.00208
23 | RRIRLRPPRLPRPRPRPPFVPRP | 0.00109
24 | RRIRTRPPRLPRPRPRPCFCPRP | -0.259
25 | RRIRCRPPRLPRPRPRPHIAPRP | -0.413

Row | Sequence | shrunken log2 fold change
26 | RRIRRRPPRLPRPRPRPQSGPRP | 0.121
27 | RRIRCRPPRLPRPRPRPGCVPRP | 0.248
28 | RRIRYRPPRLPRPRPRPKRGPRP | 0.00607
29 | RRIRARPPRLPRPRPRPASLPRP | 0.196
30 | RRIRQRPPRLPRPRPRPWHGPRP | 0.0373
31 | RRIRWRPPRLPRPRPRPSKSPRP | -0.0449
32 | RRIRNRPPRLPRPRPRPQNSPRP | -0.38
33 | RRIRQRPPRLPRPRPRPIGYPRP | -0.0242
34 | RRIRERPPRLPRPRPRPSVFPRP | -0.0831
35 | RRIRKRPPRLPRPRPRPYHIPRP | -0.323
36 | RRIRMRPPRLPRPRPRPIMDPRP | -0.133
37 | RRIRARPPRLPRPRPRPDWSPRP | 0.048
38 | RRIRHRPPRLPRPRPRPDCDPRP | -0.243
39 | RRIRTRPPRLPRPRPRPLMQPRP | 0.19
40 | RRIRERPPRLPRPRPRPTPWPRP | 0.108
41 | RRIRRRPPRLPRPRPRPICCPRP | 0.213
42 | RRIRTRPPRLPRPRPRPPGIPRP | 0.264
43 | RRIRQRPPRLPRPRPRPSGKPRP | -0.147
44 | RRIRGRPPRLPRPRPRPMHQPRP | 0.696
45 | RRIRVRPPRLPRPRPRPWHKPRP | -0.127
46 | RRIRLRPPRLPRPRPRPDCVPRP | 0.0107
47 | RRIRYRPPRLPRPRPRPFYLPRP | -0.955
48 | RRIRDRPPRLPRPRPRPMECPRP | 0.0176
49 | RRIRLRPPRLPRPRPRPQFPPRP | 0.172
50 | RRIRLRPPRLPRPRPRPIPQPRP | -0.0537

Row | Sequence | shrunken log2 fold change
51 | RRIRGRPPRLPRPRPRPLPAPRP | 1.33
52 | RRIRPRPPRLPRPRPRPLVVPRP | -0.0898
53 | RRIRWRPPRLPRPRPRPIMSPRP | -0.161
54 | RRIRDRPPRLPRPRPRPVWCPRP | 0.162
55 | RRIRFRPPRLPRPRPRPAVRPRP | -0.0627
56 | RRIRYRPPRLPRPRPRPEAKPRP | -0.109
57 | RRIRTRPPRLPRPRPRPFAVPRP | -0.0779
58 | RRIRERPPRLPRPRPRPHPKPRP | 0.0177
59 | RRIRARPPRLPRPRPRPLCIPRP | -0.143
60 | RRIRIRPPRLPRPRPRPRYYPRP | -0.372
61 | RRIRNRPPRLPRPRPRPMTWPRP | 0.0964
62 | RRIRCRPPRLPRPRPRPRDSPRP | -0.0484
63 | RRIRKRPPRLPRPRPRPNTNPRP | -0.0445
64 | RRIRPRPPRLPRPRPRPNCCPRP | 0.187
65 | RRIRSRPPRLPRPRPRPGWVPRP | 0.549
66 | RRIRERPPRLPRPRPRPHNKPRP | -0.787
67 | RRIRMRPPRLPRPRPRPKSTPRP | 1.44
68 | RRIRDRPPRLPRPRPRPKVGPRP | -0.017
69 | RRIRLRPPRLPRPRPRPVPVPRP | -0.0404
70 | RRIRSRPPRLPRPRPRPKEQPRP | -0.0517
71 | RRIRRRPPRLPRPRPRPPYRPRP | 0.113
72 | RRIRPRPPRLPRPRPRPYGWPRP | -0.248
73 | RRIRNRPPRLPRPRPRPLYQPRP | -0.357
74 | RRIRYRPPRLPRPRPRPVCQPRP | -0.181
75 | RRIRKRPPRLPRPRPRPESMPRP | 0.603

Row | Sequence | shrunken log2 fold change
76 | RRIRERPPRLPRPRPRPMMFPRP | -0.0555
77 | RRIRNRPPRLPRPRPRPEQAPRP | 0.632
78 | RRIRRRPPRLPRPRPRPLVKPRP | -0.179
79 | RRIRLRPPRLPRPRPRPGSHPRP | 0.0329
80 | RRIRFRPPRLPRPRPRPLVLPRP | -0.251
81 | RRIRHRPPRLPRPRPRPPHYPRP | 0.0175
82 | RRIRGRPPRLPRPRPRPEVIPRP | 0.073
83 | RRIRIRPPRLPRPRPRPICYPRP | -0.325
84 | RRIRIRPPRLPRPRPRPTKDPRP | -0.491
85 | RRIRERPPRLPRPRPRPIRMPRP | -0.00149
86 | RRIRDRPPRLPRPRPRPMTMPRP | -0.00418
87 | RRIRKRPPRLPRPRPRPNQMPRP | 0.234
88 | RRIRDRPPRLPRPRPRPWFAPRP | -0.0921
89 | RRIRWRPPRLPRPRPRPTSTPRP | 0.0842
90 | RRIRVRPPRLPRPRPRPYLIPRP | 0.0388
91 | RRIRWRPPRLPRPRPRPDHGPRP | -0.104
92 | RRIRQRPPRLPRPRPRPQGLPRP | 0.0739
93 | RRIRCRPPRLPRPRPRPFCQPRP | -0.353
94 | RRIRPRPPRLPRPRPRPPTHPRP | 0.317
95 | RRIRPRPPRLPRPRPRPQGPPRP | 0.0552
96 | RRIRVRPPRLPRPRPRPIILPRP | -0.483
97 | RRIRFRPPRLPRPRPRPYIAPRP | -1.11
98 | RRIRGRPPRLPRPRPRPQLSPRP | 0.0797
99 | RRIRPRPPRLPRPRPRPKSDPRP | 0.0265
100 | RRIRHRPPRLPRPRPRPHWVPRP | -0.00951

Row | Sequence | shrunken log2 fold change
101 | RRIRTRPPRLPRPRPRPLPNPRP | 0.203
102 | RRIRWRPPRLPRPRPRPPDMPRP | 0.0014
103 | RRIRQRPPRLPRPRPRPGYQPRP | -0.164
104 | RRIRGRPPRLPRPRPRPMTGPRP | 0.427
105 | RRIRFRPPRLPRPRPRPEFEPRP | 0.122
106 | RRIRKRPPRLPRPRPRPLMAPRP | 0.635
107 | RRIRARPPRLPRPRPRPEPRPRP | 0.679
108 | RRIRRRPPRLPRPRPRPFSMPRP | 0.0721
109 | RRIRWRPPRLPRPRPRPENQPRP | 0.353
110 | RRIRTRPPRLPRPRPRPWMPPRP | -0.247
111 | RRIRCRPPRLPRPRPRPMCQPRP | -0.0371
112 | RRIRWRPPRLPRPRPRPLKNPRP | 0.245
113 | RRIRIRPPRLPRPRPRPGCCPRP | -0.04
114 | RRIRFRPPRLPRPRPRPKCNPRP | -0.238
115 | RRIRARPPRLPRPRPRPFECPRP | -0.00737
116 | RRIRNRPPRLPRPRPRPEDIPRP | -0.194
117 | RRIRLRPPRLPRPRPRPWINPRP | -0.43
118 | RRIRYRPPRLPRPRPRPGKAPRP | -0.00206
119 | RRIRWRPPRLPRPRPRPWNQPRP | -0.067
120 | RRIRLRPPRLPRPRPRPWIHPRP | -0.487
121 | RRIRERPPRLPRPRPRPIVMPRP | -0.86
122 | RRIRARPPRLPRPRPRPTQLPRP | 0.611
123 | RRIRGRPPRLPRPRPRPLCFPRP | 0.705
124 | RRIRWRPPRLPRPRPRPIAFPRP | 0.171
125 | RRIRLRPPRLPRPRPRPLGYPRP | -1.79

Row | Sequence | shrunken log2 fold change
126 | RRIRYRPPRLPRPRPRPCWDPRP | -0.0738
127 | RRIRTRPPRLPRPRPRPWAAPRP | -0.0363
128 | RRIRHRPPRLPRPRPRPSQRPRP | -0.102
129 | RRIRIRPPRLPRPRPRPYQHPRP | -0.136
130 | RRIRPRPPRLPRPRPRPDNIPRP | -0.406
131 | RRIRIRPPRLPRPRPRPCAVPRP | -0.431
132 | RRIRARPPRLPRPRPRPWDMPRP | 0.187
133 | RRIRVRPPRLPRPRPRPFRCPRP | -0.123
134 | RRIRFRPPRLPRPRPRPGNMPRP | -0.198
135 | RRIRGRPPRLPRPRPRPHQGPRP | -0.0236
136 | RRIRMRPPRLPRPRPRPPQIPRP | 0.468
137 | RRIRFRPPRLPRPRPRPHSLPRP | -0.169
138 | RRIRRRPPRLPRPRPRPANWPRP | 0.387
139 | RRIRHRPPRLPRPRPRPYSIPRP | -9.97e-05
140 | RRIRIRPPRLPRPRPRPASEPRP | 0.149
141 | RRIRNRPPRLPRPRPRPSGQPRP | -0.188
142 | RRIRDRPPRLPRPRPRPSWYPRP | 0.0397
143 | RRIRNRPPRLPRPRPRPEQFPRP | -0.0122
144 | RRIRTRPPRLPRPRPRPPINPRP | -0.338
145 | RRIRQRPPRLPRPRPRPIDKPRP | 0.0866
146 | RRIRIRPPRLPRPRPRPCETPRP | 0.105
147 | RRIRRRPPRLPRPRPRPLAHPRP | 0.223
148 | RRIRCRPPRLPRPRPRPDCAPRP | 0.515
149 | RRIRSRPPRLPRPRPRPTCWPRP | 1.09
150 | RRIRCRPPRLPRPRPRPIMWPRP | -0.123
